The record followed here is PMC7181406.

What all share (assay): TIRF microscopy
Assay [1] concerns the target taxol-stabilized microtubules assembled from porcine brain tubulin (porcine) (UniProt P02550).
For assay [2] the target is unchanged. This is another data set of the same source.
Assay [3] has the same target. The source holds these as a separate data set.
Assay [4] shares this target. This is another data set of the same source.
For assay [5] the target is unchanged. The source holds these as a separate data set.
For assay [6] the target is unchanged. The source holds these as a separate data set.
Assay [7] has the same target. The source holds these as a separate data set.
Assay [8] has the same target. The source holds these as a separate data set.
Assay [9] shares this target. This is another data set of the same source.
Assay [10] has the same target. This is another data set of the same source.
For assay [11] the target is unchanged. This is another data set of the same source.
Assay [12] shares this target. The source holds these as a separate data set.
Assay [13] shares this target. The source holds these as a separate data set.

Values joined by “and” are separate entries in the source; they are usually repeats but may differ in a detail not shown here. Identical values can stand only once. Like-named read-outs stand apart in the source and are kept apart here.

With “KIF5B_(1-560)-mScarlet (from UniProt P33176 1-560) (domain or fragment)”, the landing rate (motors μm^−1min^−1nM^−1) in assay [1] is 0.06; in assay [2], 0.11; in assay [3] it was 0.01 and 0.005; in [4], 2.72; in assay [5], 0.02; in assay [6], 0.03. The landing rate (motors μm^−1min^−1nM^−1) is 0.07 in [7], 0.03 in assay [8], 0.05 in [9] and 0.58 in [10].

Regarding “p150-mScarlet (from UniProt Q14203-1 1-1278) (natural protein)”, the fluorescence intensity on microtubules in assay [2] was determined as 44200 A.U.

Regarding “TMR-GST-dynein motor domain (SNAPf-GST-hDyn) (domain or fragment)”, the fluorescence intensity on microtubules in assay [11] is 13700 A.U; in assay [2], 13200 A.U.

“KIF5B_(K-insert)-mScarlet (from UniProt P33176 1-560) (domain or fragment)”: the landing rate (motors μm^−1min^−1nM^−1) in [2] was found to be 5.44; in assay [12], 6.04; in assay [13], 0.83.
